Source: the RNAGym collection of RNA variant scans (doi:10.1021/acssynbio.7b00057)

B1: Pistol ribozyme (parent)
chain: GGGUCGUUGUUCCAUAAUCGCGUGGAUAUGGCACGCAAGUUUCUACCGGGCACCGUAAAUGUCCGACUGGAGCCGUUCGGGCGGCUAUAAACAGACCUCAGGCCCGAAGCGUGGCGGCACCUGCCGCCGGUGGUAAAAAAGAUCGGAAGAGCACACGUCU

Variants of: B1
Assay: aptazyme ON/OFF ratio, guanine; higher = stronger switching; co-transcriptional cleavage with and without guanine

| Variant | aptazyme ON/OFF ratio |
| --- | --- |
| U7C U8G G9U U10A U11C C12G C13G | 1.27 |
| U7C U8G G9U U10A U11C C12G C13U | 1.19 |
| U7C U8G G9U U10A U11C C12G C13A | 1.16 |
| U7C U8G U10C C12U | 1.38 |
| U7C U8G U10C C12G | 2.01 |
| U7C U8G U10C C12A | 2.01 |
| U7C U8G G9U U10G U11G C12U | 1.28 |
| U7C U8G G9U U10G U11G C12G | 1.22 |
| U7C U8G G9U U10G U11G C12A | 1.22 |
| U7C U8G G9U U10G U11A C12U C13G | 1.17 |
| U7C U8G G9U U10G U11A C12U C13U | 1.26 |
| U7C U8G G9U U10G U11A C12U C13A | 1.24 |
| U7C U8G G9U U11G C12G C13A | 1.1 |
| U7C U8G G9U U11G C12G C13G | 1.18 |
| U7C U8G G9U U11G C12G C13U | 1.11 |
| U7C U8G G9U U10C U11A C12U C13U | 1.34 |
| U7C U8G G9U U10C U11A C12U C13A | 1.24 |
| U7C U8G G9U U10C U11A C12U C13G | 1.27 |
| U7C U8G G9U U10C C12G C13G | 1.34 |
| U7C U8G G9U U10C C12G C13A | 1.28 |
| U7C U8G G9U U10C C12G C13U | 1.25 |
| U7C U8G G9U U10G U11C C12G C13G | 1.07 |
| U7C U8G G9U U10G U11C C12G C13U | 1.08 |
| U7C U8G G9U U10G U11C C12G C13A | 1.03 |

| Variant | aptazyme ON/OFF ratio |
| --- | --- |
| U7C U8G G9U U11C C12U C13U | 1.32 |
| U7C U8G G9U U11C C12U C13G | 1.07 |
| U7C U8G G9U U11C C12U C13A | 1.38 |
| U7C U8G G9U U10C U11A C12G C13A | 1.14 |
| U7C U8G G9U U10C U11A C12G C13U | 1.2 |
| U7C U8G G9U U10C U11A C12G C13G | 1.21 |
| U7C U8G G9U U10A U11A C12G C13U | 1.2 |
| U7C U8G G9U U10A U11A C12G C13G | 1.28 |
| U7C U8G G9U U10A U11A C12G C13A | 1.18 |
| U7C U8G G9U U10G C12U C13G | 1.1 |
| U7C U8G G9U U10G C12U C13A | 1.17 |
| U7C U8G G9U U10G C12U C13U | 1.32 |
| U7C U8G U10A U11G C12G C13U | 1.36 |
| U7C U8G U10A U11G C12G C13A | 1.11 |
| U7C U8G U10A U11G C12G C13G | 1.23 |
| U7C U8G G9U U10C U11C C12A | 1.07 |
| U7C U8G G9U U10C U11C C12G | 1.07 |
| U7C U8G G9U U10C U11C C12U | 1.1 |
| U7C U8G G9U U10A U11G C12G | 1.23 |
| U7C U8G G9U U10A U11G C12A | 1.11 |
| U7C U8G G9U U10A U11G C12U | 1.19 |
| U7C U8G G9U U10C U11G C12A C13G | 1.13 |
| U7C U8G G9U U10C U11G C12A C13U | 1.22 |
| U7C U8G G9U U10C U11G C12A C13A | 1.1 |

| Variant | aptazyme ON/OFF ratio |
| --- | --- |
| U7C U8G G9U U10A U11A C12G | 1.11 |
| U7C U8G G9U U10A U11A C12A | 1.25 |
| U7C U8G G9U U10A U11A C12U | 1.33 |
| U7C U8G G9U U10C C12G | 1.29 |
| U7C U8G G9U U10C C12U | 1.4 |
| U7C U8G G9U U10C C12A | 1.68 |
| U7C U8G G9U | 3.71 |
| U7C U8G U10A U11G C12A C13G | 1.13 |
| U7C U8G U10A U11G C12A C13A | 1.12 |
| U7C U8G U10A U11G C12A C13U | 1.12 |
| U7C U8G G9U C12G C13G | 1.25 |
| U7C U8G G9U C12G C13U | 1.28 |
| U7C U8G G9U C12G C13A | 1.17 |
| U7C U8G G9U C13A | 1.31 |
| U7C U8G G9U C13G | 1.06 |
| U7C U8G G9U C13U | 1.55 |
| U7C U8G G9U U10G U11A C12A | 1.25 |
| U7C U8G G9U U10G U11A C12U | 1.13 |
| U7C U8G G9U U10G U11A C12G | 1.17 |
| U7C U8G U10A U11A C12A C13G | 1.12 |
| U7C U8G U10A U11A C12A C13U | 1.18 |
| U7C U8G U10A U11A C12A C13A | 1.1 |
| U7C U8G G9U U10A C12A C13U | 1.22 |
| U7C U8G G9U U10A C12A C13A | 1.15 |

| Variant | aptazyme ON/OFF ratio |
| --- | --- |
| U7C U8G G9U U10A C12A C13G | 1.15 |
| U7C U8G U10A C12U | 2.01 |
| U7C U8G U10A C12G | 1.18 |
| U7C U8G U10A C12A | 1.41 |
| U7C U8G G9U U10A U11C C12A | 1.14 |
| U7C U8G G9U U10A U11C C12G | 1.2 |
| U7C U8G G9U U10A U11C C12U | 1.04 |
| U7C U8G G9U U10G U11G C13U | 1.21 |
| U7C U8G G9U U10G U11G C13A | 1.23 |
| U7C U8G G9U U10G U11G C13G | 1.06 |
| U7C U8G G9U U10C C13G | 1.13 |
| U7C U8G G9U U10C C13U | 2.24 |
| U7C U8G G9U U10C C13A | 1.15 |
| U7C U8G G9U U11A C12U C13U | 1.45 |
| U7C U8G G9U U11A C12U C13A | 1.43 |
| U7C U8G G9U U11A C12U C13G | 1.24 |
| U7C U8G G9U U10G U11C C12U C13A | 1.13 |
| U7C U8G G9U U10G U11C C12U C13U | 1.04 |
| U7C U8G G9U U10G U11C C12U C13G | 1.08 |
| U7C U8G G9U U10A U11G C13U | 1.28 |
| U7C U8G G9U U10A U11G C13A | 1.13 |
| U7C U8G G9U U10A U11G C13G | 1.04 |
| U7C U8G U10A U11C C12A C13G | 1.05 |
| U7C U8G U10A U11C C12A C13U | 1.15 |

| Variant | aptazyme ON/OFF ratio |
| --- | --- |
| U7C U8G U10A U11C C12A C13A | 1.14 |
| U7C U8G G9U U10C U11C | 1.06 |
| U7C U8G G9U U10C U11G | 1.23 |
| U7C U8G G9U U10C U11A | 1.5 |
| U7C U8G G9U U10G U11A C13U | 1.12 |
| U7C U8G G9U U10G U11A C13A | 1.1 |
| U7C U8G G9U U10G U11A C13G | 1.08 |
| U7C U8G U10A U11G C12U C13U | 1.17 |
| U7C U8G U10A U11G C12U C13G | 1.08 |
| U7C U8G U10A U11G C12U C13A | 1.07 |
| U7C U8G U10A U11G C12A | 1.11 |
| U7C U8G U10A U11G C12U | 1.2 |
| U7C U8G U10A U11G C12G | 1.23 |
| U7C U8G G9U U11C C12A | 1.41 |
| U7C U8G G9U U11C C12G | 1.32 |
| U7C U8G G9U U11C C12U | 1.21 |
| U7C U8G G9U U10G C12A C13G | 1.09 |
| U7C U8G G9U U10G C12A C13U | 1.15 |
| U7C U8G G9U U10G C12A C13A | 1.12 |
| U7C U8G G9U U10A U11C C13G | 1.05 |
| U7C U8G G9U U10A U11C C13A | 1.05 |
| U7C U8G G9U U10A U11C C13U | 1.02 |
| U7C U8G G9U U10G C12G | 1.08 |
| U7C U8G G9U U10G C12A | 1.15 |

| Variant | aptazyme ON/OFF ratio |
| --- | --- |
| U7C U8G G9U U10G C12U | 1.12 |
| U7C U8G G9U U10A U11G C12U C13A | 1.11 |
| U7C U8G G9U U10A U11G C12U C13U | 1.14 |
| U7C U8G G9U U10A U11G C12U C13G | 1.14 |
| U7C U8G G9U U10A U11C C12A C13U | 1.13 |
| U7C U8G G9U U10A U11C C12A C13G | 1.16 |
| U7C U8G G9U U10A U11C C12A C13A | 1.16 |
| U7C U8G G9U U10C U11C C12G C13G | 1.08 |
| U7C U8G G9U U10C U11C C12G C13U | 1.04 |
| U7C U8G G9U U10C U11C C12G C13A | 1.13 |
| U7C U8G G9U U10C U11G C13A | 1.19 |
| U7C U8G G9U U10C U11G C13G | 1.03 |
| U7C U8G G9U U10C U11G C13U | 1.19 |
| U7C U8G G9U U11G C13G | 1.04 |
| U7C U8G G9U U11G C13U | 1.21 |
| U7C U8G G9U U11G C13A | 1.21 |
| U7C U8G G9U U11A C13A | 1.28 |
| U7C U8G G9U U11A C13U | 1.28 |
| U7C U8G G9U U11A C13G | 1.09 |
| U7C U8G G9U U11C | 1.13 |
| U7C U8G G9U U11G | 1.2 |
| U7C U8G G9U U11A | 1.58 |
| U7C U8G U10A U11A C12G C13G | 1.13 |
| U7C U8G U10A U11A C12G C13U | 1.17 |

| Variant | aptazyme ON/OFF ratio |
| --- | --- |
| U7C U8G U10A U11A C12G C13A | 1.11 |
| U7C U8G G9U U10G U11A C12G C13U | 1.32 |
| U7C U8G G9U U10G U11A C12G C13A | 1.15 |
| U7C U8G G9U U10G U11A C12G C13G | 1.3 |
| U7C U8G G9U U10G U11G C12G C13A | 1.15 |
| U7C U8G G9U U10G U11G C12G C13U | 1.25 |
| U7C U8G G9U U10G U11G C12G C13G | 1.24 |
| U7C U8G G9U U10C C12U C13G | 1.32 |
| U7C U8G G9U U10C C12U C13U | 1.38 |
| U7C U8G G9U U10C C12U C13A | 1.38 |
| U7C U8G G9U U11G C12A C13U | 1.21 |
| U7C U8G G9U U11G C12A C13A | 1.17 |
| U7C U8G G9U U11G C12A C13G | 1.24 |
| U7C U8G G9U U10C U11G C12U C13A | 1.24 |
| U7C U8G G9U U10C U11G C12U C13G | 1.22 |
| U7C U8G G9U U10C U11G C12U C13U | 1.41 |
| U7C U8G G9U U10A U11A | 1.34 |
| U7C U8G G9U U10A U11C | 1.04 |
| U7C U8G G9U U10A U11G | 1.22 |
| U7C U8G U10C | 1.34 |
| U7C U8G U10A | 2.08 |
| U7C U8G G9U U10G U11A | 1.13 |
| U7C U8G G9U U10G U11C | 1.07 |
